The subject of test [1] is ARH-77 tumour cells. As to the kind of experiment: Survival of SCID mice bearing ARH-77 tumour cells, anti-CD71 antibody with or without Velcade, section 3.2 (FIG. 3). Format: in vivo. As for the experimental part: The injection was carried out between 24 to 72 hours after whole-body exposure of the mice to gamma radiation (1.8 Gy, ^60Co, INRA, Dijon, France).
The day of injection of tumour cells is considered as day 0 (D0). […] The treatment with Velcade® commences on day 4 and therefore takes place on days D4, D7, D11, D14, D18, D25, D28 and D32.
The 40 mice are separated into 5 groups.
The injection volume of Velcade® (10 ml/kg) is adjusted to the […] of the individual animals.
The mice surviving the experiment were sacrificed after 144 days following the injection of tumour cells. An autopsy was carried out on all the mice found dead or sacrificed during the experiment due to the presence of one of the pathological signs specified in the above section.
Table 5 below compares the average survival of the mice in the 5 groups which died or were sacrificed before the end of the experiment due to the presence of the pathological signs specified above.

Test [2] deals with CD71 antigen (transferrin receptor) on the surface of ARH-77 myeloma cells (UniProt P02786). In words: QIFIKIT indirect immunofluorescence, flow cytometry on ARH-77 cells, control antibody at 5 µg/ml; BAE is background non-specific binding capacity.
Sequence of UniProt P02786 (P02786 whole entry): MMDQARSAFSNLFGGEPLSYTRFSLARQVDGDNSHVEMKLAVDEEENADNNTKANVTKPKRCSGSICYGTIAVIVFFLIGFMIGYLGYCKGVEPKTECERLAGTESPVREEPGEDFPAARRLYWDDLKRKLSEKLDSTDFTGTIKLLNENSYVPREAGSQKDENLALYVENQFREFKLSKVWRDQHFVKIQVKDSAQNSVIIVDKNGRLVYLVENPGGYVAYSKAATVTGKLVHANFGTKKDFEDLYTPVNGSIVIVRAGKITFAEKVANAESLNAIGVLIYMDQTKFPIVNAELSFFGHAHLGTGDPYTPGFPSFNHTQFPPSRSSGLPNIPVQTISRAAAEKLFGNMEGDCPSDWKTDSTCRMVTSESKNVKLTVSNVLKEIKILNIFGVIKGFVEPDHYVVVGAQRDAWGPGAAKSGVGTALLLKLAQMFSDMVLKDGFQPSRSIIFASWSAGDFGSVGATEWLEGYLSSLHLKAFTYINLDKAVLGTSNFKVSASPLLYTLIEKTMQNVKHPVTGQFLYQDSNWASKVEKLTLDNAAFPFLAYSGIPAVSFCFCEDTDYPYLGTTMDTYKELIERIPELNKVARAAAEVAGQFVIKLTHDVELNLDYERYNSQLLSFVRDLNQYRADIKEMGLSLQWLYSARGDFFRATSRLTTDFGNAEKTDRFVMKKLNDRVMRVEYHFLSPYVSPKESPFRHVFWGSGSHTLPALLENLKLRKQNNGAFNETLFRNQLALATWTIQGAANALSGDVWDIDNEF
The target is the same in test [3]. As to the kind of experiment: QIFIKIT indirect immunofluorescence, flow cytometry on ARH-77 cells, control antibody at 5 µg/ml, anti-mouse IgG-FITC. In general terms: A flow cytometer gives signals particle by particle.
For test [4] the target is unchanged. In words: flow cytometry on ARH-77 cells, control antibody at 10 µg/ml, anti-mouse IgG-PE.

For `CC(C)C[C@H](NC(=O)[C@H](Cc1ccccc1)NC(=O)c1cnccn1)B(O)O` [Velcade®, bortezomib], the “The number of mice that died before the end of the experiment” value in test [1] (8 mice per group, end at day 144, doses as in Table 4) was found to be 8. In addition, in test [1] (8 mice per group, antibodies 1.2 mg/mouse/inj twice weekly for 6 weeks, Velcade 0.5 mg/kg/inj twice weekly for 4 weeks), the “day of death or of sacrifice due to pathological signs after injection of ARH-77 cells” value is given as 27 day. For the same compound, the The survival median in test [1] (doses as in Table 4) is reported as 29.5. Further, the The survival average in test [1] (only mice that died or were sacrificed before the end of the experiment, doses as in Table 4) came out at 28.4 days.
Turning to “irrelevant antibody (anti-mouse IgG1) used as negative control”, in test [2], the BAE is 2290. For the same compound, the MFI in test [3] was 5.2.
On to negative control antibody IgG1 (MAT002), for which, in test [4], the CD71+ % was 3.7%, the CD71- % was determined as 96.3% and the MFI is 4.9.

The record behind these values is patent US20130216476A1 (LFB BIOTECHNOLOGIES, priority 2010, published 2013).
